{"source": "paper doi:10.1101/2025.01.07.631770", "about": "“Backbone and Sidechain ^1H, ^15N and ^13C Resonance Assignments of a Multidrug Efflux Membrane Protein using Solution and Solid-State NMR” (bioRxiv, 2025)", "proteins": {"B1": {"name": "S64V-EmrE (natural protein, E. coli, UniProt P23895 1-110, looked up)", "chain": "MNPYIYLGGAILAEVIGTTLMKFSEGFTRLWPSVGTIICYCASFWLLAQTLAYIPTGIAYAIWVGVGIVLISLLSWGFFGQRLDLPAIIGMMLICAGVLIINLLSRSTPH", "notes": "also called EmrE mutant S64V"}}, "target": "the molecule itself", "assay": "solid-state NMR (13C-detected MAS, 2D NCA; two sets of peaks); S64V-EmrE in POPC proteoliposomes, 25:1 lipid/EmrE monomer, pH 5.8; 1.1 GHz, MAS 25 kHz, sample temperature 10 ± 5 °C", "data": [{"protein": "B1", "values": [{"measurement": "binding result", "value": "binds"}]}]}
